{
  "source": "patent US20260242839A1",
  "about": "“GLYCOSIDE PRODUCT BIOSYNTHESIS AND RECOVERY” (Manus Bio Inc., priority 2023, published 2026)",
  "molecules": {"B1": {"name": "H400Y: mutation to UGT enzyme of SEQ ID NO: 14 (protein)", "chain": "MATKNSSGMSLAERFWLTLSRSSLVVGRSCVEFEPETVPLLSTLRGKPITFLGLMPPLHEGRREDGEDATVRWLDAQPAKSVVYVALGSEVPLGVEKVHELALGLELAGTRFLWALRKPTGVSDADLLPAGFEERTRGRGVVATRWVPQMSILAHAAVGAFLTHCGWNSTIEGLMFGHPLIMLPITGDQGPNARLIEAKNAGLQVARNDGDGSFDREGVAAAIRAVAVEEESSKVFQAKAKKLQEIVADMACHERYIDGFIQQLRSYKDDSGYSSSYAAAAGMHVVICPWLAFGHLLPCLDLAQRLASRGHRVSFVSTPRNISRLPPVRPALAPLVAFVALPLPRVEGLPDGAESTNDVPHDRPDMVELHRRAFDGLAAPFSEFLGTACADWVIVDSFHYWAAAAALEHKVPCAMMLLGSAEMIASIADERLEHAETESPAAAGQGRPAAAPTFEVARMKLIR"}, "B2": {"name": "P56A: mutation to UGT enzyme of SEQ ID NO: 14 (protein)", "chain": "B1 chain with P56A, Y400H"}, "B3": {"name": "S266R: mutation to UGT enzyme of SEQ ID NO: 14 (protein)", "chain": "B1 chain with S266R, Y400H"}, "B4": {"name": "SEQ ID NO: 29: OsUGT1-2 (Oryza sativa) (protein, listed as Oryza sativa)", "chain": "MDSGYSSSYAAAAGMHVVICPWLAFGHLLPCLDLAQRLASRGHRVSFVSTPRNISRLPPVRPALAPLVAFVALPLPRVEGLPDGAESTNDVPHDRPDMVELHRRAFDGLAAPFSEFLGTACADWVIVDVFHHWAAAAALEHKVPCAMMLLGSAHMIASIADRRLERAETESPAAAGQGRPAAAPTFEVARMKLIRTKGSSGMSLAERFSLTLSRSSLVVGRSCVEFEPETVPLLSTLRGKPITFLGLMPPLHEGRREDGEDATVRWLDAQPAKSVVYVALGSEVPLGVEKVHELALGLELAGTRFLWALRKPTGVSDADLLPAGFEERTRGRGVVATRWVPQMSILAHAAVGAFLTHCGWNSTIEGLMFGHPLIMLPIFGDQGPNARLIEAKNAGLQVARNDGDGSFDREGVAAAIRAVAVEEESSKVFQAKAKKLQEIVADMACHERYIDGFIQQLRSYKD"}, "B5": {"name": "SEQ ID NO: 78: OsJUGT_1,6 (Oryza sativa) (protein, listed as Oryza sativa)", "chain": "MAQAERERLRVLMFPWLAHGHINPYLELATRLTTTSSSQIDVVVHLVSTPVNLAAVAHRRTDRISLVELHLPELPGLPPALHTTKHLPPRLMPALKRACDLAAPAFGALLDELSPDVVLYDFIQPWAPLEAAARGVPAVHFSTCSAAATAFFLHFLDGGGGGGGRGAFPFEAISLGGAEEDARYTMLTCRDDGTALLPKGERLPLSFARSSEFVAVKTCVEIESKYMDYLSKLVGKEIIPCGPLLVDSGDVSAGSEADGVMRWLDGQEPGSVVLVSFGSEYFMTEKQLAEMARGLELSGAAFVWVVRFPQQSPDGDEDDHGAAAARAMPPGFAPARGLVVEGWAPQRRVLSHRSCGAFLTHCGWSSVMESMSAGVPMVALPLHIDQPVGANLAAELGVAARVRQERFGEFEAEEVARAVRAVMRGGEALRRRATELREVVARRDAECDEQIGALLHRMARLCGKGTGRAAQLGH"}, "B6": {"name": "SEQ ID NO: 60: UGT_1,6 (Coffea Arabica) (protein, listed as Coffea arabica)", "chain": "MENHATFNVLMLPWLAHGHVSPYLELAKKLTARNFNVYLCSSPATLSSVRSKLTEKFSQSIHLVELHLPKLPELPAEYHTTNGLPPHLMPTLKDAFDMAKPNFCNVLKSLKPDLLIYDLLQPWAPEAASAFNIPAVVFISSSATMTSFGLHFFKNPGTKYPYGNAIFYRDYESVFVENLTRRDRDTYRVINCMERSSKIILIKGFNEIEGKYFDYFSCLTGKKVVPVGPLVQDPVLDDEDCRIMQWLNKKEKGSTVFVSFGSEYFLSKKDMEEIAHGLEVSNVDFIWVVRFPKGENIVIEETLPKGFFERVGERGLVVNGWAPQAKILTHPNVGGFVSHCGWNSVMESMKFGLPIIAMPMHLDQPINARLIEEVGAGVEVLRDSKGKLHRERMAETINKVMKEASGESVRKKARELQEKLELKGDEEIDDVVKELVQLCATKNKRNGLHYY"}, "B7": {"name": "SEQ ID NO: 75: CeUGT_1,6 (Coffea eugenioides) (protein, listed as Coffea sp.)", "chain": "MAENHATFNVLMLPWLAHGHVSPYLELAKKLTARNFNVYLCSSPATLSSVRSKLTEKFSQSIHLVELHLPKLPELPAEYHTTNGLPPHLMPTLKDAFDMAEPNFCNVLKSLKPDLLIYDLLQPWAPEAASAFNIPAVVFISSSATMTSFGLHFFKNPGTKYPYGNTIFYRDYESVFVENLKRRDRDTYRVVNCMERSSKIILIKGFKEIEGKYFDYFSCLTGKKVVPVGPLVQDPVLDDEDCRIMQWLNKKEKGSTVFVSFGSEYFLSKEDMEEIAHGLELSNVDFIWVVRFPKGENIVIEETLPKGFFERVGERGLVVNGWAPQAKILTHPNVGGFVSHCGWNSVMESMKFGLPIIAMPMHLDQPINARLIEEVGAGVEVLRDSKGKLHRERMAETINKVTKEASGESVRKKARELQEKLELKGDEEIDDVVKELVQLCATKNKRNGLHYN"}, "B8": {"name": "SEQ ID NO: 79: PgUGT94_B1 (Panax ginseng) (protein)", "chain": "MADNQNGRISIALLPFLAHGHISPFFELAKQLAKRNCNVFLCSTPINLSSIKDKDSSASIKLVELHLPSSPDLPPHYHTTNGLPSHLMLPLRNAFETAGPTFSEILKTLNPDLLIYDFNPSWAPEIASSHNIPAVYFLTTAAASSSIGLHAFKNPGEKYPFPDFYDNSNITPEPPSADNMKLLHDFIACFERSCDIILIKSFRELEGKYIDLLSTLSDKTLVPVGPLVQDPMGHNEDPKTEQIINWLDKRAESTVVFVCFGSEYFLSNEELEEVAIGLEISTVNFIWAVRLIEGEKKGILPEGFVQRVGDRGLVVEGWAPQARILGHSSTGGFVSHCGWSSIAESMKFGVPVIAMARHLDQPLNGKLAAEVGVGMEVVRDENGKYKREGIAEVIRKVVVEKSGEVIRRKARELSEKMKEKGEQEIDRALEELVQICKKKKDEQ", "modifications": "Panax ginseng"}, "B9": {"name": "SEQ ID NO: 76: CeUGT_1,6.2 (Coffea eugenioides) (protein, listed as Coffea sp.)", "chain": "MAENHATFNVLMLPWLAHGHVSPYLELAKKLTARNFNVYLCSSPATLSSVRSKLTEKFSQSIHLVELHLPKLPELPAEYHTTNGLPPHLMPTLKDAFDMAKPNFCNVLKSLKPDLLIYDLLQPWAPEAASAFNIPAVVFISSSATMTSFGLHFFKNPGTKYPYGNAIFYRDYESVFVENLTRRDRDTYRVINCMERSSKIILIKGFNEIEGKYFDYFSCLTGKKVVPVGPLVQDPVLDDEDCEIMQWLNKKEKVSTVFVSFGSEYFLSKKDMEEIAHGLELSNVDFIWVVRFPKGENIVIEETLPKGFFERVGERGLVVNGWAPQAKILTHPNVGGFVSHCGWNSVMESMKFGLPIIAMPMHLDQPINARLIEEVGAGVEVLRDSKGKLHRERMAETINKVMKEASGESVRKKARELQEKMDLKGDEEIDDVVKELVQLCATKNKRNGLHYY"}, "B10": {"name": "SEQ ID NO: 77: SgUGT94-289-3.2 (Siraitia grosvenorii) (protein)", "chain": "MADAAQQGDTTTILMLPWLGYGHLSAFLELAKSLSRRNFHIYFCSTSVNLDAIKPKLPSSFSDSIQFVELHLPSSPEFPPHLHTTNGLPPTLMPALHQAFSMAAQHFESILQTLAPHLLIYDSLQPWAPRVASSLKIPAINFNTTGVFVISQGLHPIHYPHSKFPFSEFVLHNHWKAMYSTADGASTERTRKRGEAFLYCLHASCSVILINSFRELEGKYMDYLSVLLNKKVVPVGPLVYEPNQDGEDEGYSSIKNWLDKKEPSSTVFVSFGSEYFPSKEEMEEIAHGLEASEVNFIWVVRFPQGDNTSGIEDALPKGFLERAGERGMVVKGWAPQAKILKHWSTGGFVSHCGWNSVMESMMFGVPIIGVPMHVDQPFNAGLVEEAGVGVEAKRDPDGKIQRDEVAKLIKEVVVEKTREDVRKKAREMSEILRSKGEEKFDEMVAEISLLLKI"}, "B11": {"name": "SEQ ID NO: 39: SgUGT94-289-1 (Siraitia grosvenorii) (protein)", "chain": "MDAQRGHTTTILMFPWLGYGHLSAFLELAKSLSRRNFHIYFCSTSVNLDAIKPKLPSSSSSDSIQLVELCLPSSPDQLPPHLHTTNALPPHLMPTLHQAFSMAAQHFAAILHTLAPHLLIYDSFQPWAPQLASSLNIPAINFNTTGASVLTRMLHATHYPSSKFPISEFVLHDYWKAMYSAAGGAVTKKDHKIGETLANCLHASCSVILINSFRELEEKYMDYLSVLLNKKVVPVGPLVYEPNQDGEDEGYSSIKNWLDKKEPSSTVFVSFGSEYFPSKEEMEEIAHGLEASEVHFIWVVRFPQGDNTSAIEDALPKGFLERVGERGMVVKGWAPQAKILKHWSTGGFVSHCGWNSVMESMMFGVPIIGVPMHLDQPFNAGLAEEAGVGVEAKRDPDGKIQRDEVAKLIKEVVVEKTREDVRKKAREMSEILRSKGEEKMDEMVAAISLFLKI"}},
  "note": "Substitutions are numbered along the chain they refer to. In names and notes the source's numbering stands.",
  "data": [
    {"test_system": "steviol glycoside", "experiment": "steviol glycoside bioconversion by E. coli expressing individual mutations of UGT SEQ ID NO: 14", "type": "cell-based", "details": "fold improvement of % conversion vs parent UGT SEQ ID NO: 14; stevia leaf extract and glucose fed; 37° C., 48 hr", "method_in_brief": "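E. coli strains expressing single mutants of the parent UGT were fed stevia leaf extract and glucose and incubated at 37 °C for 48 hr. Steviol glycoside conversion was quantified by reverse-phase LC-DAD. Fold improvement is relative to % conversion by the parent enzyme.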", "values": [
      {"molecule": "B1", "FI %Stevioside→rebE": 1.2, "FI %rebA→rebD": 1.3},
      {"molecule": "B2", "FI %Stevioside→rebE": 1.5, "FI %rebA→rebD": 1.3},
      {"molecule": "B3", "FI %Stevioside→rebE": 1.4, "FI %rebA→rebD": 1.3}
    ]},
    {"test_system": "Mog. IIE or Mog. IE", "experiment": "branched glycosylation reactions by cells expressing UGT enzymes", "type": "cell-based, E. coli", "details": "Mog. IIE or Mog. IE fed; 37° C., 48 hr; LC-MS/MS", "experimental": "Mog. IIE or Mog. IE was fed to cells expressing various UGT enzymes. Reactions were incubated at 37° C. for 48 hr. Products were quantified by LC-MS/MS with authentic standards of each compound. “Indirect” evidence means that consumption of substrate was observed.", "values": [
      {"molecule": "B4", "C3 1-2": "No", "C3 1-6": "No", "C24 1-2": "No", "C24 1-6": "Yes"},
      {"molecule": "B5", "C3 1-2": "No", "C3 1-6": "No", "C24 1-2": "Yes", "C24 1-6": "No"},
      {"molecule": "B6", "C3 1-2": "No", "C3 1-6": "Yes", "C24 1-2": "Yes", "C24 1-6": "Yes"},
      {"molecule": "B7", "C3 1-2": "Yes", "C3 1-6": "Yes", "C24 1-2": "Yes", "C24 1-6": "Yes"},
      {"molecule": "B8", "C3 1-2": "No", "C3 1-6": "No", "C24 1-2": "No", "C24 1-6": "Yes"},
      {"molecule": "B9", "C3 1-2": "No", "C3 1-6": "Yes", "C24 1-2": "No", "C24 1-6": "Yes"},
      {"molecule": "B10", "C3 1-2": "No", "C3 1-6": "Yes", "C24 1-2": "No", "C24 1-6": "Yes"},
      {"molecule": "B11", "C3 1-2": "No", "C3 1-6": "Yes", "C24 1-2": "Yes", "C24 1-6": "Yes"}
    ]}
  ]
}
